Where a chain is given by its changes, count along the chain named.
T1: GST-PIF3-Flag (Arabidopsis thaliana, UniProt O80536 1-524)
T1 sequence: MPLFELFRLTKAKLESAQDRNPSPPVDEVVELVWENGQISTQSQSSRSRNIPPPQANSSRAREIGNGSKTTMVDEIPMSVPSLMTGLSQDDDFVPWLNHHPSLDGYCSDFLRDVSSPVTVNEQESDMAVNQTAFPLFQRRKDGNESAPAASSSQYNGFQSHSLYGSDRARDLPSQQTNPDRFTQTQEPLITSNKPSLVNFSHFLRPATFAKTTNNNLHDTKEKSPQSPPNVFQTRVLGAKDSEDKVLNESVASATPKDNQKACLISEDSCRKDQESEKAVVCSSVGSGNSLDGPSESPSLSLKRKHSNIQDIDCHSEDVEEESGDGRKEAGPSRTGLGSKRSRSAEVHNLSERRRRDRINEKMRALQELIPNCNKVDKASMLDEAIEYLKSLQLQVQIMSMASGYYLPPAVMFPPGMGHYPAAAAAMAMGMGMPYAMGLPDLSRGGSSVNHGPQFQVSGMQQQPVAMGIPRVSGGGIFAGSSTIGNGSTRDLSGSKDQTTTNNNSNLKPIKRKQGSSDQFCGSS

B1: RGA1 WT (dsDNA)
DNA 1: GACCCATTAACACGTGGATCCATCACGTGCTGTCAGTTT
DNA 2: AAACTGACAGCACGTGATGGATCCACGTGTTAATGGGTC
B2: IBH1 WT (dsDNA)
DNA 1: AGGCCATAGCCATGTGCCTTCATGTGGTGGTTGGCC
DNA 2: GGCCAACCACCACATGAAGGCACATGGCTATGGCCT
B3: PHYB WT (dsDNA)
DNA 1: ACCATTAGCCCACGTGATCTTGGGCC
DNA 2: GGCCCAAGATCACGTGGGCTAATGGT
B4: IAA2 WT (dsDNA)
DNA 1: TGAGGCCGCCCATGTGGACACGACTC
DNA 2: GAGTCGTGTCCACATGGGCGGCCTCA
B5: AT4G30410 (bHLH159) WT (dsDNA)
DNA 1: ATAGGAGAAGCACATGCATGCACATGCTACGAATGG
DNA 2: CCATTCGTAGCATGTGCATGCATGTGCTTCTCCTAT
B6: PIL1b mut2 (1st G-box) (dsDNA)
DNA 1: ACGCGGCATTCACGGGAAGTGCACGTGAACTTGGCCA
DNA 2: TGGCCAAGTTCACGTGCACTTCCCGTGAATGCCGCGT
B7: PIL1b mut3 (2nd G-box) (dsDNA)
DNA 1: B6 DNA 1 with G15T, T26G
DNA 2: B6 DNA 2 with A12C, C23A
B8: RGA1 mut2 (1st G-box) (dsDNA)
DNA 1: B1 DNA 1 with T15G
DNA 2: B1 DNA 2 with A25C
B9: RGA1 mut3 (2nd G-box) (dsDNA)
DNA 1: B1 DNA 1 with T28G
DNA 2: B1 DNA 2 with A12C
B10: HB2 mut5 (PBE-box) (dsDNA)
DNA 1: GGGTCAGATCCACGTGAAGTTCCCATGCTTTCCATGC
DNA 2: GCATGGAAAGCATGGGAACTTCACGTGGATCTGACCC
B11: PIL1b WT (dsDNA)
DNA 1: B6 DNA 1 with G15T
DNA 2: B6 DNA 2 with C23A
B12: ATHB-2 (HB2) WT (dsDNA)
DNA 1: B10 DNA 1 with C23A
DNA 2: B10 DNA 2 with G15T
B13: HB2 mut4 (G-box and PBE-box) (dsDNA)
DNA 1: B10 DNA 1 with T15G
DNA 2: B10 DNA 2 with A23C
B14: HB2 mut2 (G-box) (dsDNA)
DNA 1: B10 DNA 1 with T15G, C23A
DNA 2: B10 DNA 2 with G15T, A23C

The binders below were run against T1, GST-PIF3-Flag (assay: DPI-ELISA; DPI-ELISA: TBS-T (20 mM Tris-HCl pH 7.5, 180 mM NaCl, 0.1% Tween 20), 5% milk block, 2 pmol probe/well, 100 ng protein, 1 h, competitor 2/10/50 pmol; EMSA: 100). Conditions: protein: recombinant, tags: N-term GST, chain copies: 2, label: 5' biotin on one strand (probe), blunt.

| Binder | binding result |
| --- | --- |
| B1 | binds |
| B2 | binds |
| B3 | binds |
| B4 | binds |
| B5 | binds |

Each binder was assayed against T1, GST-PIF3-Flag (assay: competition; EMSA; competes similar to WT; DPI-ELISA: TBS-T (20 mM Tris-HCl pH 7.5, 180 mM NaCl, 0.1% Tween 20), 5% milk block, 2 pmol probe/well, 100 ng protein, 1 h, competitor 2/10/50 pmol; EMSA: 100). Conditions: protein: recombinant, tags: N-term GST, chain copies: 2, blunt.

| Binder | binding result |
| --- | --- |
| B6 | binds |
| B7 | binds |
| B8 | binds |
| B9 | binds |
| B10 | binds |

Each binder was assayed against T1, GST-PIF3-Flag (assay: EMSA; DPI-ELISA: TBS-T (20 mM Tris-HCl pH 7.5, 180 mM NaCl, 0.1% Tween 20), 5% milk block, 2 pmol probe/well, 100 ng protein, 1 h, competitor 2/10/50 pmol; EMSA: 100). Conditions: protein: recombinant, tags: N-term GST, chain copies: 2, label: 5' biotin on one strand (probe), blunt.

| Binder | binding result |
| --- | --- |
| B11 | binds |
| B12 | binds |

Each binder was assayed against T1, GST-PIF3-Flag (assay: competition; EMSA; no competition; DPI-ELISA: TBS-T (20 mM Tris-HCl pH 7.5, 180 mM NaCl, 0.1% Tween 20), 5% milk block, 2 pmol probe/well, 100 ng protein, 1 h, competitor 2/10/50 pmol; EMSA: 100). Conditions: protein: recombinant, tags: N-term GST, chain copies: 2, blunt.

| Binder | binding result |
| --- | --- |
| B13 | no binding |
| B14 | no binding |

From PMC3561105, “A Quartet of PIF bHLH Factors Provides a Transcriptionally Centered Signaling Hub That Regulates Seedling Morphogenesis through Differential Expression-Patterning of Shared Target Genes in Arabidopsis”
